One protein from publication PMC8390497, “A guanidine-degrading enzyme controls genomic stability of ethylene-producing cyanobacteria” (Nature Communications, 2021) can be followed below.

Substrate in the data set: N=C(N)N
As to the kind of experiment: HPLC guanidine / GC-MS urea quantification, velocity versus guanidine concentration. The class given is biochemical, Synechocystis sp. PCC 6803. Particulars: 20 mM Tris-HCl pH 7.5, 50 mM NaCl, 1 mM MnCl2, 30 °C, His-tagged enzyme, no ATP.

B1: Sll1077-His (Synechocystis sp. PCC 6803 substr. Kazusa) (protein)
chain: MSDATPFRPPSEAEEALIKETRLPLTGWQQEVDQGLTYGLEAAASIKDRSIPTFSRGELPHYAGINTFMKAPYLEDVREVGKYDVAIVGVPHDSGTTYRPGTRFGPQGIRRISALYTPYNFEMGVDLREQISLCDVGDIFTIPANNEKSFDQISKGIAHIFSSGAFPIILGGDHSIGFPTVRGICRHLGDKKVGIIHFDRHVDTQETDLDERMHTCPWFHATNMANAPAKNLVQLGIGGWQVPRQGVKVCRERATNILTVTDITEMSLDAAADFAIARATDGTDCVWISFDIDCIDAGFVPGTGWPEPGGLLPREALYLLKRIIRETNVCGMEVVEVSPPYDISDMTSLMATRVICDTMAHLVVSGQLPRTEKPAYIHAEANMAVDEPWQ
notes: full-length with C-terminal 6xHis tag kept (no XhoI linker, pPB316), overexpressed in and purified from Synechocystis 6803 strain PB816W
Regarding B1, the Km (as a rule, the substrate concentration at which the rate is half of its maximum) is given as 5.3 ± 1.2 mM and the kcat – broadly, the maximal rate divided by the concentration of active sites – amounted to 0.040 ± 0.010 s⁻¹.
